Experimental data reported in US20030027180, “Nucleic acid shuffling” (published 2003).

Experiments:
[1] = target: T1, streptavidin (UniProt P22629 P22629:25-183); assay: filter; no streptavidin affinity; conditions: tags: Sigma; chain copies: 4
Method: (§1) Binding affinity assays: Affinities for streptavidin were measured using a radioactive filter binding assay. Pools or individual clones were amplified by PCR. One pmol was radiolabeled with 15 units T4 PNK and 10 μCi γ-³²P ATP (NEN) in T4 PNK buffer at 37° C., 1 h. Labeled DNA was extracted twice with phenol-chloroform and purified twice by gel filtration to remove ATP. The DNA was then denatured in water at 95° C. for 5 min together with 2 μg human genomic DNA (to block nonspecific DNA binding) per 5 fmol labeled DNA, and chilled in ice water for 5 mins. 5 fmol of labeled DNA plus 2 μg unlabeled human genomic DNA was added to varying amounts of streptavidin (0 to 1024 nM) in 50 μL of 100 mM NaCl, 50 mM Tris-Cl pH 8.0, 5 mM MgCl₂ (“assay buffer”), giving a final concentration of labeled DNA of 0.1 nM. The DNA and streptavidin were incubated at room temperature for 30 minutes. A multiscreen-HA 96 well nitrocellulose filter plate (Millipore), which retains protein-DNA complexes much better than free DNA, was pre-washed with 125 μL assay buffer then loaded with each assay sample. The samples were rapidly filtered on a vacuum manifold and the membranes washed twice with 250 uL of assay buffer. The membrane for each well was punched out from the plate using a stylus and the bound radioactive label quantitated by phosphorimager together with 1 fmol of unreacted probe.

[2] = target: T1, streptavidin; assay: filter; affinity comparable to error-prone PCR evolved sequences; no own Kd printed; conditions: tags: Sigma; chain copies: 4; stem-loop predicted by Mfold
Method: as §1

[3] = target: T1, streptavidin; assay: filter; 100 mM NaCl, 50 mM Tris pH 8.0, 5 mM MgCl2, room temperature, human genomic DNA competitor; conditions: tags: Sigma; chain copies: 4; label: 5'-32P
Method: as §1

T1 sequence (P22629 25-183, one chain of several): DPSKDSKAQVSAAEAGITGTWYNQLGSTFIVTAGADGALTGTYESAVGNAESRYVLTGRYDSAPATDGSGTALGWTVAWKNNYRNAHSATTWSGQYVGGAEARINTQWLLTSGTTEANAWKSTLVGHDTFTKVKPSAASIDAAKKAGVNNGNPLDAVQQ

CTGTGAGACAAAACCTGCGACCGGTGCGTCGTCTCACAGA (ssDNA) [complement strand of minimal 40-mer]
binding result [1]: no binding

TCTGTGAGACGACGCACCGGTCGCAGGTTTTGTCTCACAG (ssDNA) [minimal 40-mer]
binding result [2]: binds

B1: 13x16 #1 (ssDNA)
DNA: GAAAACTGCTCATATGATTGATTAGCCCGCTGCTCGTCCAAATGACGGCTCAGCTCTGTATTTTTAGCGTCTGTGAGACAGAACCTGCGACCGGTGCGTCGTCTCACAGTCTACTGTATCTTCGCGTACCTTAGGTTTACCCGCTGCTCGTCCAAATGACGGCTCTCTGTGAGACAAAACCTGCGACCGGTGCGTCGTCTCACAGTAAGAGGGTTCTTGGATA
Kd [3]: 4.7 nM
